Article PMC3465527

T1: Mss116p MBP-D1 (Saccharomyces cerevisiae? (paper: yeast), UniProt P15424 88-330)
T1 sequence: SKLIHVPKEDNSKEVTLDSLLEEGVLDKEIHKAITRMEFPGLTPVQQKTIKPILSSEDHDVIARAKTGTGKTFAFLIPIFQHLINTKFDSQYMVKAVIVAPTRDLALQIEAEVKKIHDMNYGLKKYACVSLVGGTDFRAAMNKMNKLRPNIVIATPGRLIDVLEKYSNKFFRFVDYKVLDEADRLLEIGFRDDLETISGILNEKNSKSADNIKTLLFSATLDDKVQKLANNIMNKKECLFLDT

T2: Mss116p D2 (with CTE) (Saccharomyces cerevisiae? (paper: yeast), UniProt P15424 342-597)
T2 sequence: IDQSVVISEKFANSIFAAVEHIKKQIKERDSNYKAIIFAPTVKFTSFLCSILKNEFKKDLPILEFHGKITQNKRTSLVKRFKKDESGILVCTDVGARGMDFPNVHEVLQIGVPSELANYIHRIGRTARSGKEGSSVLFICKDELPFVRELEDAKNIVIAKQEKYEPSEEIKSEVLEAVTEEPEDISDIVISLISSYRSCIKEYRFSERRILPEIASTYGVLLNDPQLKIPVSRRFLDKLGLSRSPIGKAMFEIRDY


Tests used:
[1] = target: T1, Mss116p MBP-D1; assay: EMSA
[2] = target: T2, Mss116p D2 (with CTE); assay: X-ray crystallography

Binder	binding result [1]	binding result [2]
FAM-dsRNA 14-bp (dsRNA) RNA 1: GGGCGGGCCCGCCC RNA 2: GGGCGGGCCCGCCC	no binding	
chimeric RNA-DNA duplex 14-bp (mixed, each strand rGrGrGrCrGrGrGdCdCdCdGdCdCdC: nt 1-7 RNA, nt 8-14 DNA) ? 1: GGGCGGGCCCGCCC ? 2: GGGCGGGCCCGCCC		binds
